# Assays:
# TIMP1 = details: old mice after PNX, PH, or kidney I/R
# Excerpt: Macrophages/monocytes were isolated from indicated mouse tissues via antibody-coated beads isolation after PNX, PH, or Kid I/R. Expression of genes was examined by quantitative PCR.
# NRP1 = assay: HDAC and DNMT inhibitor treatment of old mice: NRP1 protein in isolated ECs (immunoblot); format: in vivo, mouse; details: old mice after PNX; 10 mg/kg VPA, 0.5 mg/kg AZA
# Method: Injection of growth factor and treatment of HDAC and DNMT inhibitors. Three months old (young) mice were subjected to PNX, PH or kidney I/R and injected with 20 μg/kg […] or equal molar amounts of PDGF-BB, HGF, VEGF165, or TGFβ1 every three days. 3-mon Nrp1^+/+, Nrp1^iΔEC/iΔEC, or […] mice were also treated with […]. To test the regulation of […] and NRP1, old mice were treated with 10 mg/kg HDAC inhibitor VPA, 0.5 mg/kg DNMT1 inhibitor azacitidine (AZA), or combinatorial treatment of VPA and AZA (VPA+AZA). Expression of EPCR and NRP1 proteins in isolated lung, liver, and kidney ECs were tested by immunoblot, and […] amounts in homogenized organs was tested by ELISA.
# [1] = tested on: Lung and liver fibroblast cells; assay: TIMP1 treatment of lung fibroblast and liver stellate cell (immunoblot); format: cell-based, mouse
# Method: TIMP1 treatment of lung fibroblast and liver stellate cell. Lung and liver fibroblast cells were from ScienceCell Research Laboratories and cultured as described previously (Reference 8). Lung and liver fibroblast cells were treated with 20 ng/ml TIMP1, 10 ng/ml TGFβ1, or 20 ng/ml TIMP1 and 10 ng/ml TGFβ1. To identify the role of β1 integrin in TIMP1-mediated fibroblast activation, p1 integrin was silenced in fibroblast cells by shRNA. After treatment, lung and liver fibroblast cells were retrieved for analysis of Smad2 phosphorylation and SMA protein expression by immunoblot. Smad2 phosphorylation and SMA protein expression were quantified by densitometry of immunoblot.
# mouse liver fibrosis = assay: CCl4 liver injury / fibrosis model; format: in vivo; details: Nrp1 iΔEC/iΔEC mice after chronic injury
# Method: Animal Care and Mouse lines used.
# Mouse liver regeneration and repair models. Mouse liver regeneration was induced by PH.
# Tissue fibrosis determination. Lung, liver and kidney fibrotic responses were determined at the indicated time after injury. Tissues were homogenized in tissue lysis buffer. Immunoblot of Collagen I was performed with the obtained tissue lysates. Protein level of Collagen I was compared between different groups. Sirius red and hematoxylin stainings were performed on paraffin-embedded tissue sections to determine the tissue morphology and Collagen deposition and distribution (Reference 8). Sirius red-positive fibrotic parenchyma was determined from five random fields in each section and quantified. Hydroxyproline amount was quantified in the liver and lung to determine the extent of fibrosis.
# kidney fibrosis = assay: Folic acid kidney fibrosis model; format: in vivo, mouse; details: Nrp1 iΔEC/iΔEC mice after chronic injury
# Method: Animal Care and Mouse lines used. […] This mouse line was crossed with floxed Nrp1 […] mice to generate […] and control mice. […] Mouse kidney regeneration and repair models. Mouse kidney I/R model was adopted from described (Reference 72). After mice were anesthetized, ischemia was induced by the retroperitoneal approach on both kidneys for 30 min. Sham operation was carried out with exposure of kidneys without inducing ischemia. To generate kidney fibrosis, mice were given a single i.p. injection of folic acid at the dose of 250 mg/kg, as previously described (Reference 74). […] At indicated time, serum creatinine concentration was measured by the picric acid method, and tissue morphology and fibrosis were analyzed by Sirius red and hematoxylin co-stainings. Tissue fibrosis determination. Lung, liver and kidney fibrotic responses were determined at the indicated time after injury. Tissues were homogenized in tissue lysis buffer. Immunoblot of Collagen I was performed with the obtained tissue lysates. Protein level of Collagen I was compared between different groups. […] Sirius red-positive fibrotic parenchyma was determined from five random fields in each section and quantified. Hydroxyproline amount was quantified in the liver and lung to determine the extent of fibrosis.
# EPCR [2] = assay: Growth factor injection after PNX: EPCR / HIF2α in lung ECs; format: in vivo, mouse
# Method: Mouse lung regeneration and repair models. To test mouse lung alveolar regeneration and repair, models of left lung PNX (Reference 19) and lung injury (Reference 7) were adapted. Mice were anesthetized with a cocktail of ketamine (100 mg/kg) and xylazine (10 mg/kg). PNX was carried out when left lung lobe was resected with a suture tied around the hilum. PCECs were purified from 20 months (designated as old) and 3 months old (designated as young) mice after PNX, and total RNA was isolated and subjected to transcriptome analysis as described. Intratracheal injection of 2 U/kg bleomycin was employed to induce lung injury. To block EPCR signaling, mice were intraperitoneally injected with EPCR neutralizing antibody 1560 at 1.5 mg/kg (Reference 46) after PNX and Bleo injection. Young Nrp1^iΔEC/iΔEC Hif2a^iΔEC/iΔEC, and control mice were also administered with 20 μg/kg mouse P1GF or same molar amounts of HGF and PDGF-BB (Peprotech) after PNX and PH. In addition, repeated intratracheal hydrochloric acid injection models were employed to induce lung injury (Reference 76). Orotracheal instillation was performed in anesthetized mice, and 20 μl of an iso-osmolar solution of 0.1 M hydrochloric acid (pH 1.0) was instilled. […] After recovery, mice were transferred to ventilated cages with access to food and water. […] At the described time points, pulmonary function and oxygen tension in arterial blood of treated mice were measured as previously described (Reference 7). To measure cell proliferation, 100 mg/kg 5-ethynyl-2′-deoxyuridine (EDU) was i.p. injected into mice one hour before sacrificing, and EDU incorporation was measured by EDU cell proliferation kit. Mice were i.p. supplemented with 1 ml PBS after all surgery procedures.
# Injection of growth factor and treatment of HDAC and DNMT inhibitors. Three months old (young) mice were subjected to PNX, PH or kidney I/R and injected with 20 μg/kg P1GF or equal molar amounts of PDGF-BB, HGF, VEGF165, or TGFβ1 every three days. 3-mon Nrp1^+/+, Nrp1^iΔEC/iΔEC, or Hif2a^iΔEC/iΔEC mice were also treated with P1GF. To test the regulation of P1GF and NRP1, old mice were treated with 10 mg/kg HDAC inhibitor VPA, 0.5 mg/kg DNMT1 inhibitor azacitidine (AZA), or combinatorial treatment of VPA and AZA (VPA+AZA). Expression of EPCR and NRP1 proteins in isolated lung, liver, and kidney ECs were tested by immunoblot, and P1GF amounts in homogenized organs was tested by ELISA.
# EPCR [3] = assay: Growth factor injection after PH: EPCR in liver ECs; format: in vivo, mouse; details: liver lacking endothelial Nrp1 or Hif2a
# Method: Mouse lung regeneration and repair models. To test mouse lung alveolar regeneration and repair, models of left lung PNX (Reference 19) and lung injury (Reference 7) were adapted. Mice were anesthetized with a cocktail of ketamine (100 mg/kg) and xylazine (10 mg/kg). PNX was carried out when left lung lobe was resected with a suture tied around the hilum. PCECs were purified from 20 months (designated as old) and 3 months old (designated as young) mice after PNX, and total RNA was isolated and subjected to transcriptome analysis as described. Intratracheal injection of 2 U/kg bleomycin was employed to induce lung injury. To block EPCR signaling, mice were intraperitoneally injected with EPCR neutralizing antibody 1560 at 1.5 mg/kg (Reference 46) after PNX and Bleo injection. Young Nrp1^iΔEC/iΔEC Hif2a^iΔEC/iΔEC, and control mice were also administered with 20 μg/kg mouse P1GF or same molar amounts of HGF and PDGF-BB (Peprotech) after PNX and PH. […] At the described time points, pulmonary function and oxygen tension in arterial blood of treated mice were measured as previously described (Reference 7). To measure cell proliferation, 100 mg/kg 5-ethynyl-2′-deoxyuridine (EDU) was i.p. injected into mice one hour before sacrificing, and EDU incorporation was measured by EDU cell proliferation kit. […]
# [4] = 20 ng/ml TIMP1, co-treatment with 10 ng/ml TGF-β1
molecule,measurement,setting,value
c1cc(CN2CCCNCCNCCCNCC2)ccc1CN1CCCNCCNCCCNCC1 [AMD3100],TIMP1 upregulation in the macrophages of old organs,TIMP1,attenuated
"CCCC(CCC)C(=O)O [VPA, valproic acid]",expression of NRP1 in lung ECs,NRP1,reduced
TIMP1: recombinant tissue inhibitor of metalloproteinases 1 incubated with fibroblast cells,phosphorylation of Smad2,[1]; 20 ng/ml TIMP1,augmented
same,smooth muscle cell actin (SMA) protein expression,[1]; 20 ng/ml TIMP1,augmented
same,phosphorylation of Smad2,[1]; [4],further enhanced
same,smooth muscle cell actin (SMA) protein expression,[1]; [4],further enhanced
"activated protein C (protein, UniProt P04070 200-461, looked up, Vitamin K-dependent protein C heavy chain activated two-chain form) Vitamin K-dependent protein C …: DTEDQEDQVDPRLIDGKMTRRGDSPWQVVLLDSKKKLACGAVLIHPSWVLTAAHCMDESKKLLVRLGEYDLRRWEKWELDLDIKEVFVHPNYSKSTTDNDIALLHLAQPATLSQTIVPICLPDSGLAERELNQAGQETLVTGWGYHSSREKEAKRNRTFVLNFIKIPVVPHNECSEVMSNMVSENMLCAGILGDRQDACEGDSGGPMVASFHGTWFLVGLVSWGEGCGLLHNYGVYTKVSRYLDWIHGHIRDKEAPQKSWAP",EPCR expression in liver ECs,mouse liver fibrosis,enhanced
same,HIF2A induction in liver ECs,mouse liver fibrosis,suppressed
same,EPCR expression in kidney ECs,kidney fibrosis,enhanced
same,HIF2A induction in kidney ECs,kidney fibrosis,suppressed
"P1GF: placenta growth factor, NRP1 ligand, injected into mice (protein, UniProt P49763 19-221, looked up) Placenta growth factor: LPAVPPQQWALSAGNGSSEVEVVPFQEVWGRSYCRALERLVDVVSEYPSEVEHMFSPSCVSLLRCTGCCGDENLHCVPVETANVTMQLLKIRSGDRPSYVELTFSQHVRCECRHSPGRQSPDMPGDFRADAPSFLPPRRSLPMLFRMEWGCALTGSQSAVWPSSPVPEEIPRMHPGRNGKKQQRKPLREKMKPERCGDAVPRR",effect of P1GF on EPCR / HIF2a,EPCR [2]; Nrp1 iΔEC/iΔEC mice after PNX,abrogated
same,EPCR in lung ECs,EPCR [2]; young Hif2a iΔEC/iΔEC mice after PNX,did not suppress
same,HIF2a in lung ECs,"EPCR [2]; young mice after PNX, 20 μg/kg",enhanced
same,EPCR expression in lung ECs,"EPCR [2]; young mice after PNX, 20 μg/kg or equal molar amounts",suppressed
same,EPCR upregulation in liver ECs,EPCR [3],did not prohibit

# Source: patent US20240316011A1, “ANTI-FIBROSIS PHARMACEUTICAL COMPOSITION AND APPLICATION THEREOF” (West China Second University Hospital, priority 2020, published 2024)
